Test results from the RNAGym collection of RNA variant scans (doi:10.7554/elife.80360).

B1: Twister Ribozyme (parent)
chain: AACACUGCCAAUGCCGGUCCCAAGCCCGGAUAAAAGUGGAGGGGGCGG

Variants of: B1
Assay: self-cleavage, relative activity (ratio to wild type); higher = more cleavage; co-transcriptional

Variant	self-cleavage
A22C G41C	0.195
A22C G42U	0.198
A22C G43A	0.183
A22C G43C	0.145
A22C G44C	0.905
A22C G44U	0.967
A22C G45C	0.491
A22C G45U	0.946
A22C G47C	0.458
A22C G48A	1.01
A22C G48C	1.16
A22C G48U	1.03
A22C U31A	0.54
A22C U31C	1.12
A22C U37A	0.84
A22C U37G	0.631
A22G A23C	0.115
A22G A23U	0.0557
A22G A30G	0.394
A22G A30U	0.316
A22G A32G	0.25
A22G A33C	0.147
A22G A34C	0.0775
A22G A35C	0.195

Variant	self-cleavage
A22G A35U	0.313
A22G C25A	0.0752
A22G C25G	0.0838
A22G C26U	0.101
A22G C27G	0.084
A22G C27U	0.111
A22G C46A	0.227
A22G C46G	0.328
A22G G24A	0.114
A22G G24U	0.0699
A22G G28A	0.128
A22G G28C	0.215
A22G G28U	0.197
A22G G29A	0.221
A22G G29C	0.0828
A22G G36C	0.0743
A22G G38A	0.106
A22G G38U	0.122
A22G G39A	0.101
A22G G39U	0.109
A22G G41C	0.133
A22G G42A	0.0942
A22G G42C	0.0934
A22G G43C	0.154

Variant	self-cleavage
A22G G43U	0.101
A22G G45C	0.124
A22G G47A	0.184
A22G G47C	0.128
A22G G47U	0.136
A22G G48U	0.334
A22G U31G	0.263
A22G U37C	0.129
A22U A23C	0.0587
A22U A23U	0.102
A22U A30C	0.614
A22U A32C	0.859
A22U A32G	0.786
A22U A32U	0.71
A22U A33G	0.888
A22U A34C	0.0816
A22U A34U	0.495
A22U A35C	0.778
A22U A35U	0.659
A22U A40C	0.184
A22U A40G	0.734
A22U C25A	0.0894
A22U C25G	0.115
A22U C26G	0.0767

Variant	self-cleavage
A22U C27A	0.159
A22U C46A	0.764
A22U C46G	0.816
A22U G24C	0.0864
A22U G24U	0.11
A22U G28C	0.548
A22U G29A	0.644
A22U G29C	0.604
A22U G36A	0.179
A22U G36C	0.19
A22U G38A	0.843
A22U G38U	0.353
A22U G39A	0.099
A22U G41U	0.137
A22U G42C	0.154
A22U G42U	0.191
A22U G43A	0.136
A22U G43U	0.185
A22U G44A	0.788
A22U G45C	0.401
A22U G45U	0.57
A22U G47U	0.67
A22U U31A	0.521
A22U U31G	0.833

Variant	self-cleavage
A22U U37C	0.236
A22U U37G	0.554
A23C	0.385
A23C A30C	0.116
A23C A30U	0.264
A23C A32C	0.22
A23C A32G	0.187
A23C A34C	0.161
A23C A34U	0.0811
A23C A35U	0.404
A23C A40C	0.0967
A23C A40G	0.128
A23C A40U	0.146
A23C C25A	0.066
A23C C25G	0.0881
A23C C26A	0.199
A23C C26G	0.12
A23C C27U	0.0937
A23C C46G	0.155
A23C C46U	0.486
A23C G24A	0.107
A23C G24U	0.0714
A23C G28A	0.225
A23C G28C	0.0761

Variant	self-cleavage
A23C G29A	0.196
A23C G36C	0.102
A23C G38A	0.131
A23C G38U	0.107
A23C G39A	0.127
A23C G39C	0.103
A23C G41A	0.138
A23C G41U	0.118
A23C G42A	0.113
A23C G42C	0.156
A23C G42U	0.0925
A23C G43C	0.123
A23C G43U	0.109
A23C G45A	0.118
A23C G45U	0.156
A23C G47C	0.13
A23C G48A	0.14
A23C G48U	0.181
A23C U31A	0.363
A23C U31C	0.247
A23C U31G	0.274
A23C U37C	0.0915
A23G	0.634
A23G A30C	0.0761

Variant	self-cleavage
A23G A32U	0.393
A23G A33C	0.187
A23G A33G	0.281
A23G A33U	0.393
A23G A34C	0.0596
A23G A34G	0.112
A23G A35C	0.499
A23G A35G	0.188
A23G A35U	0.472
A23G A40C	0.0453
A23G A40G	0.123
A23G A40U	0.125
A23G C25A	0.0465
A23G C25U	0.132
A23G C26A	0.0747
A23G C27G	0.0997
A23G C46A	0.328
A23G G24A	0.12
A23G G24C	0.0875
A23G G24U	0.063
A23G G28A	0.284
A23G G29C	0.1
A23G G36A	0.126
A23G G36U	0.0865

Variant	self-cleavage
A23G G38C	0.289
A23G G39C	0.102
A23G G39U	0.142
A23G G41A	0.15
A23G G41U	0.0995
A23G G42A	0.128
A23G G42U	0.121
A23G G43C	0.125
A23G G44A	0.604
A23G G44U	0.458
A23G G45A	0.332
A23G G47A	0.265
A23G G47C	0.209
A23G U31A	0.602
A23G U31C	0.544
A23G U31G	0.746
A23G U37A	0.111
A23G U37G	0.17
A23U	0.697
A23U A30C	0.115
A23U A32G	0.45
A23U A33C	0.186
A23U A33G	0.18
A23U A34U	0.121

Variant	self-cleavage
A23U A35C	0.71
A23U A35G	0.17
A23U A35U	0.614
A23U A40G	0.0874
A23U A40U	0.0967
A23U C25A	0.0618
A23U C25U	0.116
A23U C26G	0.101
A23U C27U	0.305
A23U C46A	0.325
A23U C46G	0.652
A23U C46U	0.731
A23U G24A	0.0917
A23U G24C	0.109
A23U G28A	0.211
A23U G28C	0.249
A23U G28U	0.279
A23U G36A	0.132
A23U G36U	0.0806
A23U G38A	0.342
A23U G38C	0.499
A23U G38U	0.236
A23U G39A	0.061
A23U G39C	0.0667

Variant	self-cleavage
A23U G42A	0.125
A23U G42C	0.148
A23U G42U	0.0934
A23U G43A	0.118
A23U G43U	0.112
A23U G44C	0.578
A23U G45C	0.141
A23U G45U	0.249
A23U G47U	0.163
A23U U31G	0.643
A23U U37A	0.178
A23U U37C	0.0907
A23U U37G	0.0831
G24A	0.125
G24A A30C	0.0875
G24A A30G	0.125
G24A A30U	0.0686
G24A A32G	0.11
G24A A32U	0.0696
G24A A33U	0.0989
G24A A34C	0.0735
G24A A34U	0.0893
G24A A35C	0.102
G24A A35U	0.113

Variant	self-cleavage
G24A A40G	0.0838
G24A A40U	0.112
G24A C25A	0.115
G24A C25U	0.0836
G24A C26U	0.077
G24A C27A	0.0771
G24A C27G	0.105
G24A C46A	0.0898
G24A C46U	0.107
G24A G28C	0.0749
G24A G28U	0.0869
G24A G29A	0.155
G24A G29U	0.1
G24A G36C	0.12
G24A G38A	0.101
G24A G38C	0.106
G24A G39C	0.0986
G24A G41A	0.0508
G24A G42C	0.0923
G24A G42U	0.091
G24A G43U	0.0769
G24A G44U	0.0885
G24A G45C	0.0846
G24A G45U	0.118

Variant	self-cleavage
G24A G47A	0.096
G24A G47U	0.0892
G24A U31G	0.105
G24A U37C	0.067
G24A U37G	0.0506
G24C	0.102
G24C A30C	0.0817
G24C A30G	0.096
G24C A30U	0.0977
G24C A32C	0.118
G24C A32G	0.0875
G24C A32U	0.13
G24C A33G	0.101
G24C A34G	0.103
G24C A35G	0.0669
G24C A35U	0.0871
G24C A40C	0.141
G24C A40G	0.0575
G24C C25A	0.325
G24C C25G	0.118
G24C C26A	0.0895
G24C C26U	0.126
G24C C27U	0.0994
G24C C46A	0.109

Variant	self-cleavage
G24C G29A	0.132
G24C G29U	0.0988
G24C G36A	0.115
G24C G36C	0.0888
G24C G38A	0.106
G24C G38C	0.144
G24C G38U	0.0774
G24C G39C	0.0715
G24C G41C	0.0814
G24C G41U	0.0978
G24C G43A	0.0738
G24C G44U	0.0952
G24C G45U	0.119
G24C G47U	0.0811
G24C U31C	0.108
G24C U31G	0.0739
G24C U37C	0.0778
G24C U37G	0.12
G24U	0.128
G24U A30G	0.111
G24U A30U	0.109
G24U A32C	0.113
G24U A34C	0.101
G24U A34G	0.189

Variant	self-cleavage
G24U A35G	0.0925
G24U A40C	0.099
G24U A40U	0.0893
G24U C27A	0.106
G24U C27G	0.0792
G24U C46G	0.081
G24U G28U	0.0893
G24U G29C	0.0648
G24U G29U	0.103
G24U G36U	0.0805
G24U G38A	0.0987
G24U G38U	0.0819
G24U G39A	0.0948
G24U G39C	0.0634
G24U G41U	0.0892
G24U G42U	0.0953
G24U G43A	0.0702
G24U G43U	0.0757
G24U G44A	0.127
G24U G44C	0.0809
G24U G44U	0.097
G24U G47C	0.131
